This passage reports protein stability index results from the supplement of paper PMC10567573.

The labels stand for the following.
B1: ANKRD40 (parent)
chain: VCCCELGVNPDQVEKIRKLPNTLL
B2: PPFIA4 (parent)
chain: YAGNLHESGVHGALLALDENFDHN
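Also: lentivirally expressed fusions sorted by FACS into six bins by GFP to DsRed ratio, PSI derived from sequencing read proportions per bin multiplied by bin number.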

Variants of B1 are the subject of the first data set. Nature of the data set: protein stability index of a GFP-peptide fusion (GPS, HEK-293T) (PSI 1-6); higher = more stable. Particulars: c terminus: a fixed tail appended.
As for LCCCELGVNPDQVEKIRKLPNTLL [V1L], the protein stability index amounted to 2.04. In the case of MCCCELGVNPDQVEKIRKLPNTLL [V1M], the protein stability index worked out at 2.

On to VCCCELGVNPPQVEKIRKLPNTLL [D11P], for which the protein stability index amounted to 1.24.

Take VCCCELGVNPKQVEKIRKLPNTLL [D11K]: the protein stability index was 1.89.

Turning to VCCCELGVNPVQVEKIRKLPNTLL [D11V], the protein stability index was 1.46. The same measure, in the same setting: for VCCCELGVNPWQVEKIRKLPNTLL [D11W] the value was 1.98; for VCCCELGVNPIQVEKIRKLPNTLL [D11I], 1.93.

For VCCCELGVNPGQVEKIRKLPNTLL [D11G], the protein stability index was found to be 2.17. For the variant VCCCELGVNPHQVEKIRKLPNTLL [D11H], the protein stability index stood at 1.26. For the variant VCCCELGVNPTQVEKIRKLPNTLL [D11T], the protein stability index amounted to 1.69.

For VCCCELGVNPQQVEKIRKLPNTLL [D11Q], the protein stability index turned out to be 1.63. Same read-out and setting: to VCCCELGVNPDQVEKIRKLQNTLL [P20Q] belongs 1.87. As for VCCCELGVNPDQVEKIRKLCNTLL [P20C], the protein stability index was found to be 1.38. On the same count and under the same terms, for VCCCELGVNPDQVEKIRKLANTLL [P20A] the value was 1.88; for VCCCELGVNPDQVEKIRKLRNTLL [P20R], 1.91; for VCYCELGVNPDQVEKIRKLPNTLL [C3Y], 2.27.

VCHCELGVNPDQVEKIRKLPNTLL [C3H]: the protein stability index is 2.18. Still for that read-out and setting: to VCVCELGVNPDQVEKIRKLPNTLL [C3V] belongs 2.53; to VCFCELGVNPDQVEKIRKLPNTLL [C3F], 1.24. On the same count and under the same terms, for VCICELGVNPDQVEKIRKLPNTLL [C3I] the value was 1.69; for VCWCELGVNPDQVEKIRKLPNTLL [C3W], 1.81.

Take VCLCELGVNPDQVEKIRKLPNTLL [C3L]: the protein stability index came to 2.03.

Turning to VCNCELGVNPDQVEKIRKLPNTLL [C3N], the protein stability index was determined as 1.82. On the same count and under the same terms, for VCCCELGVNPDQVEKIRKLPNELL [T22E] the value was 2.64. The same measure, in the same setting: for VCCCELGVNPDQVEKIRKLPNLLL [T22L] the value was 2.73. Still for that read-out and setting: to VCCCELGVNPDQVEKIRKLPNNLL [T22N] belongs 1.71; to VCCCELGVNPDQVEKIRKLPNQLL [T22Q], 1.63; to VCCCELGVNPDQVEKIRKLPNVLL [T22V], 1.33.

As to VCCCELGVNPDQVEKIRKLPNPLL [T22P], the protein stability index worked out at 2.21.

In a further data set the parent is B2. The description is as above. Particulars: c terminus: a fixed tail appended.
As for YAGNLHESGVHGALLALDENFHHN [D22H], the protein stability index was 1.84.

Take YAGNLHESGVHGALLALDENFCHN [D22C]: the protein stability index stood at 1.65. In the case of YAGNLHESGVHGALLALDENFAHN [D22A], the protein stability index was found to be 2.56. On to YAGNLHESGVHGALLALDENFQHN [D22Q], for which the protein stability index was 2.2. For the variant YAGNLHESGVHGALLALDENFGHN [D22G], the protein stability index was 2.4.

Take YAGNLHESGVHGALLALDENFMHN [D22M]: the protein stability index came out at 2.3. On to YAGNLHESGVHGALLALDENFIHN [D22I], for which the protein stability index is 2.11. On to YAGNLHESGVHGALLALDENFKHN [D22K], for which the protein stability index was 2.37.

For the variant YAGNLHESGVHGALLALDENFTHN [D22T], the protein stability index came to 1.87. Same read-out and setting: for YAGNLHESGVHGALLALDENFPHN [D22P] the value was 2.47. Same read-out and setting: for YAGNLHESGVHGALLALDENFNHN [D22N] the value was 1.99. YAGNLHESGVHGALLALDENFLHN [D22L]: the protein stability index worked out at 1.46. On to YAGNLHESGVHGALLALDENFRHN [D22R], for which the protein stability index came out at 1.56. YAGNLHESGVHGALLALDENFFHN [D22F]: the protein stability index was determined as 2.01. The same measure, in the same setting: to YAGNLHESGVHGALLALDENFEHN [D22E] belongs 2.48.

Regarding YAGNLHESGVHGALLALDENFSHN [D22S], the protein stability index was found to be 2.02. The same measure, in the same setting: to YAGNLHESGVHGALLALDENFYHN [D22Y] belongs 2.49. The same measure, in the same setting: for YAGNLHESGVHGALLALDENFVHN [D22V] the value was 1.27. Still for that read-out and setting: to YAGNLHESGVHGALLALDENFWHN [D22W] belongs 2.41; to YAGNLHESGVHGALLALDENFDHI [N24I], 2.27; to YAGNLHESGVHGALLALDENFDHK [N24K], 2.02. Take YAGNLHESGVHGALLALDENFDHQ [N24Q]: the protein stability index worked out at 2.69. For YAGNLHESGVHGALLALDENFDHY [N24Y], the protein stability index amounted to 2.47. Same read-out and setting: for YAGNLHESGVHGALLALDENFDHT [N24T] the value was 2.42; for YAGNLHESGVHGALLALDENFDHR [N24R], 1.9; for YAGNLHESGVHGALLALDENFDHM [N24M], 1.92.

With YAGNLHESGVHGALLALDENFDHH [N24H], the protein stability index stood at 1.9. On the same count and under the same terms, to YAGNLHESGVHGALLALDENFDHS [N24S] belongs 2.41; to YAGNLHESGVHGALLALDENFDHG [N24G], 2.13; to YAGNLHESGVHGALLALDENFDHD [N24D], 2.46. Regarding YAGNLHESGVHGALLALDENFDHC [N24C], the protein stability index came out at 2.58. On the same count and under the same terms, to YAGNLHESGVHGALLALDENFDHP [N24P] belongs 2.39; to YAGNLHESGVHGALLALDENFDHE [N24E], 3.49. As to YAGNLHESGVHGALLALDENFDHL [N24L], the protein stability index is 2.28. Same read-out and setting: to YAGNLHESGVHGALLALDENFDHV [N24V] belongs 1.95; to YAGNLHESGVHGALLALDENFDHW [N24W], 2.01. As for YAGNLHESGVHGALLALDENFDHF [N24F], the protein stability index is 2.01.

With YAGNLHESGVHGALLALDENFDHA [N24A], the protein stability index was 2.69. Still for that read-out and setting: to YAGNLHESGVHGALLALDENRDHN [F21R] belongs 2.53; to YAGNLHESGVHGALLALDENSDHN [F21S], 3.56; to YAGNLHESGVHGALLALDENYDHN [F21Y], 2.6. As to YAGNLHESGVHGALLALDENQDHN [F21Q], the protein stability index came to 3.08. On the same count and under the same terms, to YAGNLHESGVHGALLALDENWDHN [F21W] belongs 2.69. Same read-out and setting: to YAGNLHESGVHGALLALDENTDHN [F21T] belongs 3.37. Consider YAGNLHESGVHGALLALDENPDHN [F21P], for which the protein stability index amounted to 3.45. As for YAGNLHESGVHGALLALDENVDHN [F21V], the protein stability index turned out to be 2.63. As for YAGNLHESGVHGALLALDENFDGN [H23G], the protein stability index was 2.46. Same read-out and setting: for YAGNLHESGVHGALLALDENFDSN [H23S] the value was 2.19. The same measure, in the same setting: for YAGNLHESGVHGALLALDENFDEN [H23E] the value was 2.25; for YAGNLHESGVHGALLALDENFDNN [H23N], 2.63. The same measure, in the same setting: for YAGNLHESGVHGALLALDENFDDN [H23D] the value was 2.58. Consider YAGNLHESGVHGALLALDENFDQN [H23Q], for which the protein stability index turned out to be 2.22. On the same count and under the same terms, for YAGNLHESGVHGALLALDENFDKN [H23K] the value was 2.53. As for YAGNLHESGVHGALLALDENFDFN [H23F], the protein stability index was determined as 2.12.

In the case of YAGNLHESGVHGALLALDENFDIN [H23I], the protein stability index was found to be 2.23. For the variant YAGNLHESGVHGALLALDENFDPN [H23P], the protein stability index worked out at 2.81.

On to YAGNLHESGVHGALLALDENFDLN [H23L], for which the protein stability index was 2.34. YAGNLHESGVHGALLALDENFDCN [H23C]: the protein stability index came to 2.13. With YAGNLHESGVHGALLALDENFDVN [H23V], the protein stability index was 2.63.

For YAGNLHESGVHGALLALDENFDTN [H23T], the protein stability index stood at 2.61. For the variant YAGNLHESGVHGALLALDENFDAN [H23A], the protein stability index stood at 2.18. Still for that read-out and setting: to YAGNLHESGVHGALLALDENFDWN [H23W] belongs 2.07; to YAGNLHESGVHGALLALDENFDRN [H23R], 2.47.

As for YAGNLHESGVHGALLALDENFDMN [H23M], the protein stability index amounted to 2.19. For the variant YAGNLHESGVHGALLALDENFDYN [H23Y], the protein stability index came out at 2.43.
